Numbering of substitutions follows the chain as printed.
B1: 1.35.35-1 (antibody, human IgG1, kappa, V domains shown)
VH: QVQLVQSGAEVKKPGASVRVSCKASGYNIRDYFMHWWRQAPGQGLQWVGWINPKTGQPNNPRQFQGRVTMTRHASWDFDTFSFYMDLSRLRSDDTATYFCARQRTDYWDFDVWGQGTMVTVSS
VL: DIQMTQSPSSLSASVGDRVTITCQANGYLNWYQQKPGKAPKLLIYDGSNLETGVPSRFSGSRWGQEYTLTISSLQPEDIATYFCQVYEFVGPGTNLDIKR
B2: 1.36.35-1 (antibody, human IgG1, kappa, V domains shown)
VH: B1 VH with F83A
VL: B1 VL
B3: 3.1.9-1 (antibody, human IgG1, kappa, V domains shown)
VH: QVQLLQSGAAVTKPGASVRVSCEASGYNIRDYFIHWWRQAPGQGLQWVGWINPKTGQPNNPRQFQGRVSLTRHASWDFDTFSFYMDLKALRSDDTAVYFCARQRSDYWDFDVWGSGTQVTVSS
VL: DIQMTQSPSSLSARVGDTATITCQANGYLNWYQQRRGKAPKLLIYDGSKLERGVPARFSGRRWGQEYNLTINNLQPEDVATYFCQVYEFFGPGTRLDLKR
B4: 3.1.15-1 (antibody, human IgG1, kappa, V domains shown)
VH: B3 VH
VL: B3 VL with N68T
B5: 1.34.35-1 (antibody, human IgG1, kappa, V domains shown)
VH: B3 VH with L5V, A10E, T12K, E23K, S69T, S105T
VL: B1 VL
B6: 1.1.104-1 (antibody, human IgG1, kappa, V domains shown)
VH: B3 VH
VL: B3 VL with R14S, A56S, N68T, V79I
B7: 1.1.35-1 (antibody, human IgG1, kappa, V domains shown)
VH: B3 VH
VL: B1 VL
B8: 1.1.119-1 (antibody, human IgG1, kappa, V domains shown)
VH: B3 VH
VL: B3 VL with R14S, T18R, A56S, R61S, N68T, N72S, N73S, V79I
B9: 1.1.102-1 (antibody, human IgG1, kappa, V domains shown)
VH: B3 VH
VL: B3 VL with R14S, T18R, A56S, R61S, N68H, N72S, N73S, V79I
B10: 2.2.17-1 (antibody, human IgG1, kappa, V domains shown)
VH: B3 VH with Q3H, L5S, N28K, Y32H, L90V, V97I
VL: B3 VL with N68H
B11: 3.1.12-1 (antibody, human IgG1, kappa, V domains shown)
VH: B3 VH
VL: B3 VL with N68I
B12: 3.1.7-1 (antibody, human IgG1, kappa, V domains shown)
VH: B3 VH
VL: B3 VL with T18R, R61S, N68T, N72S, N73S
B13: 2.3.17-1 (antibody, human IgG1, kappa, V domains shown)
VH: B3 VH with Q3H, L5S, L90V, V97I
VL: B3 VL with N68H
B14: 1.13.17-1 (antibody, human IgG1, kappa, V domains shown)
VH: B3 VH with I34M, W37V
VL: B3 VL with R14S, A19V, A56S, V79I
B15: 2.2.15-1 (antibody, human IgG1, kappa, V domains shown)
VH: B3 VH with Q3H, L5S, N28K, Y32H, L90V, V97I
VL: B3 VL with N68T
B16: 2.2.13-1 (antibody, human IgG1, kappa, V domains shown)
VH: B3 VH with Q3H, L5S, N28K, Y32H, L90V, V97I
VL: B3 VL with T18R, R61S, N68I, N72S, N73S
B17: 1.31.35-1 (antibody, human IgG1, kappa, V domains shown)
VH: B3 VH with L5V, A10E, V97T
VL: B1 VL
B18: 2.3.15-1 (antibody, human IgG1, kappa, V domains shown)
VH: B3 VH with Q3H, L5S, L90V, V97I
VL: B3 VL with N68T
B19: 2.2.9-1 (antibody, human IgG1, kappa, V domains shown)
VH: B3 VH with Q3H, L5S, N28K, Y32H, L90V, V97I
VL: B3 VL
B20: 1.1.118-1 (antibody, human IgG1, kappa, V domains shown)
VH: B3 VH
VL: B3 VL with R14S, T18R, A56S, R61S, N68I, N72S, N73S, V79I
B21: 1.32.35-1 (antibody, human IgG1, kappa, V domains shown)
VH: B3 VH with L5V, A10E, S105T
VL: B1 VL
B22: 2.2.12-1 (antibody, human IgG1, kappa, V domains shown)
VH: B3 VH with Q3H, L5S, N28K, Y32H, L90V, V97I
VL: B3 VL with N68I
B23: 2.2.18-1 (antibody, human IgG1, kappa, V domains shown)
VH: B3 VH with Q3H, L5S, N28K, Y32H, L90V, V97I
VL: B3 VL with T18R, R61S, N68H, N72S, N73S
B24: 2.3.12-1 (antibody, human IgG1, kappa, V domains shown)
VH: B3 VH with Q3H, L5S, L90V, V97I
VL: B3 VL with N68I
B25: 1.1.78-1 (antibody, human IgG1, kappa, V domains shown)
VH: B3 VH
VL: B3 VL with R14S, A56S, N68H, V79I
B26: 1.1.117-1 (antibody, human IgG1, kappa, V domains shown)
VH: B3 VH
VL: B3 VL with R14S, A56S, N68I, V79I
B27: 2.3.13-1 (antibody, human IgG1, kappa, V domains shown)
VH: B3 VH with Q3H, L5S, L90V, V97I
VL: B3 VL with T18R, R61S, N68I, N72S, N73S
B28: 2.3.9-1 (antibody, human IgG1, kappa, V domains shown)
VH: B3 VH with Q3H, L5S, L90V, V97I
VL: B3 VL
B29: 2.3.18-1 (antibody, human IgG1, kappa, V domains shown)
VH: B3 VH with Q3H, L5S, L90V, V97I
VL: B3 VL with T18R, R61S, N68H, N72S, N73S
B30: 2.3.7-1 (antibody, human IgG1, kappa, V domains shown)
VH: B3 VH with Q3H, L5S, L90V, V97I
VL: B3 VL with T18R, R61S, N68T, N72S, N73S
B31: 3.1.18-1 (antibody, human IgG1, kappa, V domains shown)
VH: B3 VH
VL: B3 VL with T18R, R61S, N68H, N72S, N73S
B32: 1.14.17-1 (antibody, human IgG1, kappa, V domains shown)
VH: B3 VH with I34M, W37V, F83A
VL: B3 VL with R14S, A19V, A56S, V79I
B33: 3.1.13-1 (antibody, human IgG1, kappa, V domains shown)
VH: B3 VH
VL: B3 VL with T18R, R61S, N68I, N72S, N73S
B34: 1.12.17-1 (antibody, human IgG1, kappa, V domains shown)
VH: B3 VH with W37V
VL: B3 VL with R14S, A19V, A56S, V79I
B35: 2.2.7-1 (antibody, human IgG1, kappa, V domains shown)
VH: B3 VH with Q3H, L5S, N28K, Y32H, L90V, V97I
VL: B3 VL with T18R, R61S, N68T, N72S, N73S
B36: 3.1.17-1 (antibody, human IgG1, kappa, V domains shown)
VH: B3 VH
VL: B3 VL with N68H
B37: 1.33.35-1 (antibody, human IgG1, kappa, V domains shown)
VH: B3 VH with L5V, A10E, T12K, E23K, S69T, V97T
VL: B1 VL

Experiments:
BSA = BSA (UniProt P02769); test: single-point ELISA
[1] = molecular target: HIV-1 envelope glycoprotein (gp120) of virus 92US727 (HIV-1); test: cell-based or functional assay
[2] = molecular target: HIV-1 envelope glycoprotein (gp120) of virus VS001 (HIV-1); test: cell-based or functional assay
[3] = molecular target: HIV-1 envelope glycoprotein (gp120) of virus 7141 (HIV-1); test: cell-based or functional assay

| Binder | ELISA (A450) (BSA) | Neutralization IC50 [1] | Neutralization IC50 [2] | Neutralization IC50 [3] |
| --- | --- | --- | --- | --- |
| B1 | 0.06 A450 | – | – | – |
| B2 | 0.06 A450 | – | – | – |
| B3 | – | 3.54 mg/L | 0.16 mg/L | 4.35 mg/L |
| B4 | – | > 33 mg/L | 0.49 mg/L | 9.1 mg/L |
| B5 | 0.06 A450 | – | – | – |
| B6 | – | > 50 mg/L | 0.45 mg/L | 5.13 mg/L |
| B7 | 0.08 A450 | – | – | – |
| B8 | – | > 50 mg/L | 0.39 mg/L | 6.92 mg/L |
| B9 | – | > 50 mg/L | 3 mg/L | 22.7 mg/L |
| B10 | – | > 50 mg/L | 4.38 mg/L | 6.28 mg/L |
| B11 | – | > 41 mg/L | 2.41 mg/L | 24.5 mg/L |
| B12 | – | > 50 mg/L | 0.3 mg/L | 5.65 mg/L |
| B13 | – | > 50 mg/L | 4.54 mg/L | 31.3 mg/L |
| B14 | 0.06 A450 | – | – | – |
| B15 | – | > 50 mg/L | 0.37 mg/L | 1.99 mg/L |
| B16 | – | > 50 mg/L | 1.48 mg/L | 3.8 mg/L |
| B17 | 0.06 A450 | – | – | – |
| B18 | – | > 50 mg/L | 0.85 mg/L | 5.93 mg/L |
| B19 | – | 13.1 mg/L | 0.15 mg/L | 1.75 mg/L |

| Binder | ELISA (A450) (BSA) | Neutralization IC50 [1] | Neutralization IC50 [2] | Neutralization IC50 [3] |
| --- | --- | --- | --- | --- |
| B20 | – | > 50 mg/L | 2.4 mg/L | 20.2 mg/L |
| B21 | 0.06 A450 | – | – | – |
| B22 | – | > 50 mg/L | 2.1 mg/L | 7.08 mg/L |
| B23 | – | > 34 mg/L | 2.51 mg/L | 5.04 mg/L |
| B24 | – | > 50 mg/L | 1.92 mg/L | 23.8 mg/L |
| B25 | – | > 50 mg/L | 3.3 mg/L | 29.5 mg/L |
| B26 | – | > 50 mg/L | 3.03 mg/L | 16.9 mg/L |
| B27 | – | > 38 mg/L | 1.5 mg/L | 15.5 mg/L |
| B28 | – | 11.1 mg/L | 0.22 mg/L | 2.56 mg/L |
| B29 | – | > 23 mg/L | 2.37 mg/L | > 23 mg/L |
| B30 | – | > 50 mg/L | 0.47 mg/L | 5.08 mg/L |
| B31 | – | > 9.8 mg/L | 3.52 mg/L | > 9.8 mg/L |
| B32 | 0.1 A450 | – | – | – |
| B33 | – | > 21 mg/L | 0.56 mg/L | 13.2 mg/L |
| B34 | 0.06 A450 | – | – | – |
| B35 | – | > 50 mg/L | 0.27 mg/L | 1.58 mg/L |
| B36 | – | > 50 mg/L | 2.21 mg/L | 25.5 mg/L |
| B37 | 0.07 A450 | – | – | – |
